Measured values: patent US20040053383A1, “Crystals of cytochrome P450 2C9, structures thereof and their use” (ASTEX TECHNOLOGY LTD., priority 2001, published 2004)

Key:
[1] = tested on: P450 2C9; assay type: biochemical, human
Procedure: Activity assays on P450 2C9 were performed in a 96-well plate assay format with a Fluoroscan Ascent FL Instruments (Labsystem), using the 7-methoxy-4-(trifluoromethyl)-coumarin as a fluorescent substrate.

[2] = tested on: P450 2C9; experiment: Functionality assay with methoxy-4-(trifluoromethyl)-coumarin as fluorescent substrate (Examples 6 and 8); assay type: biochemical, human; conditions: 140 μM methoxy-4-(trifluoromethyl)-coumarin, 37° C.
Procedure: Activity assays on P450 2C9 were performed in a 96-well plate assay format with a Fluoroscan Ascent FL Instruments (Labsystem), using the methoxy-4-(trifluoromethyl)-coumarin as a fluorescent substrate.
(§1) Fifteen pmoles of P450 were reconstituted with 0.1 unit of purified human oxidoreductase, in presence of 140 μM of substrate methoxy-4-(trifluoromethyl)-coumarin, a NADPH regenerating system that includes 0.15 mM NADP^+, 0.38 mM Glucose-6-phosphate and 2.9 unit/ml glucose-6-phosphate dehydrogenase in 170 μl final volume of 25 mM KPi, pH 7.4, 0.38 mM MgCl2 Incubations were performed at 37° C. for several minutes and 7-hydroxy-4-(trifluoromethyl)-coumarin was used as metabolite standard to determinate the metabolic rate. The excitation and emission wavelengths used were respectively 409 and 530 nm.
as §1, with “MgCl2.” for “MgCl2”, “The excitation and emission wavelengths used were respectively 409 and 530 nm.” left out

[3] = target: 2C19 (Homo sapiens, UniProt P33261); conditions: cited from earlier work

B1: Clone 1155: 2C9-FGloop with the substitution Lys206Glu (protein)
chain: MAKKTSSKGRPPGPTPLPVIGNILQIGIKDISKSLTNLSKVYGPVFTLYFGLKPIVVLHGYEAVKEALIDLGEEFSGRGIFPLAERANRGFGIVFSNGKKWKEIRRFSLMTLRNFGMGKRSIEDRVQEEARCLVEELRKTKASPCDPTFILGCAPCNVICSIIFHKRFDYKDQQFLNLMEKLNENIEILSSPWIQVYNNFPALLDYFPGTHNKLLKNVAFMKSYILEKVKEHQESMDMNNPQDFIDCFLMKMEKEKHNQPSEFTIESLENTAVDLFGAGTETTSTTLRYALLLLLKHPEVTAKVQEEIERVIGRNRSPCMQDRSHMPYTDAVVHEVQRYIDLLPTSLPHAVTCDIKFRNYLIPKGTTILISLTSVLHDNKEFPNPEMFDPHHFLDEGGNFKKSKYFMPFSAGKRICVGEALAGMELFLFLTSILQNFNLKSLVDPKNLDTTPVVNGFASVPPFYQLCFIPVHHHH
For B1, the 7-MFC [1] was 0.23 min⁻¹ and the “activity with 2C9 substrate” value [2] was 0.083 pmol/min/pmol P450.

B2: 2C19: human cytochrome P450 2C19, published data (protein, UniProt P33261 1-490, looked up)
Cytochrome P450 2C19: MDPFVVLVLCLSCLLLLSIWRQSSGRGKLPPGPTPLPVIGNILQIDIKDVSKSLTNLSKIYGPVFTLYFGLERMVVLHGYEVVKEALIDLGEEFSGRGHFPLAERANRGFGIVFSNGKRWKEIRRFSLMTLRNFGMGKRSIEDRVQEEARCLVEELRKTKASPCDPTFILGCAPCNVICSIIFQKRFDYKDQQFLNLMEKLNENIRIVSTPWIQICNNFPTIIDYFPGTHNKLLKNLAFMESDILEKVKEHQESMDINNPRDFIDCFLIKMEKEKQNQQSEFTIENLVITAADLLGAGTETTSTTLRYALLLLLKHPEVTAKVQEEIERVIGRNRSPCMQDRGHMPYTDAVVHEVQRYIDLIPTSLPHAVTCDVKFRNYLIPKGTTILTSLTSVLHDNKEFPNPEMFDPRHFLDEGGNFKKSNYFMPFSAGKRICVGEGLARMELFLFLTFILQNFNLKSLIDPKDLDTTPVVNGFASVPPFYQLCFIPV
For B2, the 7-MFC [3] is listed as 2.98 min⁻¹.
